Data reported in IntAct's records for PubMed 35512704.

B1: Speckle-type POZ protein (Homo sapiens), O43791 (parent)
chain: MSRVPSPPPPAEMSSGPVAESWCYTQIKVVKFSYMWTINNFSFCREEMGEVIKSSTFSSGANDKLKWCLRVNPKGLDEESKDYLSLYLLLVSCPKSEVRAKFKFSILNAKGEETKAMESQRAYRFVQGKDWGFKKFIRRDFLLDEANGLLPDDKLTLFCEVSVVQDSVNISGQNTMNMVKVPECRLADELGGLWENSRFTDCCLCVAGQEFQAHKAILAARSPVFSAMFEHEMEESKKNRVEINDVEPEVFKEMMCFIYTGKAPNLDKMADDLLAAADKYALERLKVMCEDALCSNLSVENAAEILILADLHSADQLKTQAVDFINYHASDVLETSGWKSMVVSHPHLVAEAYRSLASAQCPFLGPPRKRLKQS

Variants of: B1
Conditions: with cdc27_human CDC27, P30260

Row | effect of a mutation on the interaction | Variant
1 | with no effect | MSRVPSPPPPAEMSSGPVAESWCYTQIKVVKFSYMWTINNFSFCREEMGEVIKSSTFSSGANDKLKWCLRVNPKGLDEESKDYLSLCLLLVSCPKSEVRAKFKFSILNAKGEETKAMESQRAYRFVQGKDWGFKKFIRRDFLLDEANGLLPDDKLTLFCEVSVVQDSVNISGQNTMNMVKVPECRLADELGGLWENSRFTDCCLCVAGQEFQAHKAILAARSPVFSAMFEHEMEESKKNRVEINDVEPEVFKEMMCFIYTGKAPNLDKMADDLLAAADKYALERLKVMCEDALCSNLSVENAAEILILADLHSADQLKTQAVDFINYHASDVLETSGWKSMVVSHPHLVAEAYRSLASAQCPFLGPPRKRLKQS [Y87C]

Variants of: B1
Conditions: with cdc73_human CDC73, Q6P1J9

Row | effect of a mutation on the interaction | Variant
2 | with no effect | MSRVPSPPPPAEMSSGPVAESWCYTQIKVVKFSYMWTINNFSFCREEMGEVIKSSTFSSGANDKLKWCLRVNPKGLDEESKDYLSLCLLLVSCPKSEVRAKFKFSILNAKGEETKAMESQRAYRFVQGKDWGFKKFIRRDFLLDEANGLLPDDKLTLFCEVSVVQDSVNISGQNTMNMVKVPECRLADELGGLWENSRFTDCCLCVAGQEFQAHKAILAARSPVFSAMFEHEMEESKKNRVEINDVEPEVFKEMMCFIYTGKAPNLDKMADDLLAAADKYALERLKVMCEDALCSNLSVENAAEILILADLHSADQLKTQAVDFINYHASDVLETSGWKSMVVSHPHLVAEAYRSLASAQCPFLGPPRKRLKQS [Y87C]

Variants of: B1
Conditions: with cdk4_human CDK4, P11802
Sequence of cdk4_human CDK4, P11802 (P11802 whole entry): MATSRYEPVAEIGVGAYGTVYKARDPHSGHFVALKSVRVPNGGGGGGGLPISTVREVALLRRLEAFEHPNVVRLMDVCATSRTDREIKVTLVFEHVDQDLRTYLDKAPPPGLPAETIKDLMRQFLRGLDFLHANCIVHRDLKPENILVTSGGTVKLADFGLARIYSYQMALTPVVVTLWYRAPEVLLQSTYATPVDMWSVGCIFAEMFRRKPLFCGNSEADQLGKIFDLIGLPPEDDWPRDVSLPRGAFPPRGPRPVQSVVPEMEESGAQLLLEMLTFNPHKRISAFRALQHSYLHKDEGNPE

Row | effect of a mutation on the interaction | Variant
3 | with no effect | MSRVPSPPPPAEMSSGPVAESWCYTQIKVVKFSYMWTINNFSFCREEMGEVIKSSTFSSGANDKLKWCLRVNPKGLDEESKDYLSLCLLLVSCPKSEVRAKFKFSILNAKGEETKAMESQRAYRFVQGKDWGFKKFIRRDFLLDEANGLLPDDKLTLFCEVSVVQDSVNISGQNTMNMVKVPECRLADELGGLWENSRFTDCCLCVAGQEFQAHKAILAARSPVFSAMFEHEMEESKKNRVEINDVEPEVFKEMMCFIYTGKAPNLDKMADDLLAAADKYALERLKVMCEDALCSNLSVENAAEILILADLHSADQLKTQAVDFINYHASDVLETSGWKSMVVSHPHLVAEAYRSLASAQCPFLGPPRKRLKQS [Y87C]

Variants of: B1
Conditions: with cdk6_human CDK6, Q00534
Sequence of cdk6_human CDK6, Q00534 (Q00534 whole entry): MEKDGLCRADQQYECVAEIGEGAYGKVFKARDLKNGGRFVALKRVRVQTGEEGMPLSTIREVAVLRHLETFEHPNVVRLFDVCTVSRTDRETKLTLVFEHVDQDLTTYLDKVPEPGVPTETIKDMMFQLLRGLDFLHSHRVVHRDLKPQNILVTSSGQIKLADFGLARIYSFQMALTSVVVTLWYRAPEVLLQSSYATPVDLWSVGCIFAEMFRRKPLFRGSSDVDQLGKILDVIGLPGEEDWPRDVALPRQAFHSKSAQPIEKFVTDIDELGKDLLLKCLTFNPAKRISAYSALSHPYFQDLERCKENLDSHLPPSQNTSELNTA

Row | effect of a mutation on the interaction | Variant
4 | with no effect | MSRVPSPPPPAEMSSGPVAESWCYTQIKVVKFSYMWTINNFSFCREEMGEVIKSSTFSSGANDKLKWCLRVNPKGLDEESKDYLSLCLLLVSCPKSEVRAKFKFSILNAKGEETKAMESQRAYRFVQGKDWGFKKFIRRDFLLDEANGLLPDDKLTLFCEVSVVQDSVNISGQNTMNMVKVPECRLADELGGLWENSRFTDCCLCVAGQEFQAHKAILAARSPVFSAMFEHEMEESKKNRVEINDVEPEVFKEMMCFIYTGKAPNLDKMADDLLAAADKYALERLKVMCEDALCSNLSVENAAEILILADLHSADQLKTQAVDFINYHASDVLETSGWKSMVVSHPHLVAEAYRSLASAQCPFLGPPRKRLKQS [Y87C]

Variants of: B1
Conditions: with cdn2c_human CDKN2C

Row | effect of a mutation on the interaction | Variant
5 | with no effect | MSRVPSPPPPAEMSSGPVAESWCYTQIKVVKFSYMWTINNFSFCREEMGEVIKSSTFSSGANDKLKWCLRVNPKGLDEESKDYLSLCLLLVSCPKSEVRAKFKFSILNAKGEETKAMESQRAYRFVQGKDWGFKKFIRRDFLLDEANGLLPDDKLTLFCEVSVVQDSVNISGQNTMNMVKVPECRLADELGGLWENSRFTDCCLCVAGQEFQAHKAILAARSPVFSAMFEHEMEESKKNRVEINDVEPEVFKEMMCFIYTGKAPNLDKMADDLLAAADKYALERLKVMCEDALCSNLSVENAAEILILADLHSADQLKTQAVDFINYHASDVLETSGWKSMVVSHPHLVAEAYRSLASAQCPFLGPPRKRLKQS [Y87C]

Variants of: B1
Conditions: with chd1l_human CHD1L

Row | effect of a mutation on the interaction | Variant
6 | with no effect | MSRVPSPPPPAEMSSGPVAESWCYTQIKVVKFSYMWTINNFSFCREEMGEVIKSSTFSSGANDKLKWCLRVNPKGLDEESKDYLSLCLLLVSCPKSEVRAKFKFSILNAKGEETKAMESQRAYRFVQGKDWGFKKFIRRDFLLDEANGLLPDDKLTLFCEVSVVQDSVNISGQNTMNMVKVPECRLADELGGLWENSRFTDCCLCVAGQEFQAHKAILAARSPVFSAMFEHEMEESKKNRVEINDVEPEVFKEMMCFIYTGKAPNLDKMADDLLAAADKYALERLKVMCEDALCSNLSVENAAEILILADLHSADQLKTQAVDFINYHASDVLETSGWKSMVVSHPHLVAEAYRSLASAQCPFLGPPRKRLKQS [Y87C]

Variants of: B1
Conditions: with chd2_human CHD2, O14647
Sequence of chd2_human CHD2, O14647 (O14647 whole entry): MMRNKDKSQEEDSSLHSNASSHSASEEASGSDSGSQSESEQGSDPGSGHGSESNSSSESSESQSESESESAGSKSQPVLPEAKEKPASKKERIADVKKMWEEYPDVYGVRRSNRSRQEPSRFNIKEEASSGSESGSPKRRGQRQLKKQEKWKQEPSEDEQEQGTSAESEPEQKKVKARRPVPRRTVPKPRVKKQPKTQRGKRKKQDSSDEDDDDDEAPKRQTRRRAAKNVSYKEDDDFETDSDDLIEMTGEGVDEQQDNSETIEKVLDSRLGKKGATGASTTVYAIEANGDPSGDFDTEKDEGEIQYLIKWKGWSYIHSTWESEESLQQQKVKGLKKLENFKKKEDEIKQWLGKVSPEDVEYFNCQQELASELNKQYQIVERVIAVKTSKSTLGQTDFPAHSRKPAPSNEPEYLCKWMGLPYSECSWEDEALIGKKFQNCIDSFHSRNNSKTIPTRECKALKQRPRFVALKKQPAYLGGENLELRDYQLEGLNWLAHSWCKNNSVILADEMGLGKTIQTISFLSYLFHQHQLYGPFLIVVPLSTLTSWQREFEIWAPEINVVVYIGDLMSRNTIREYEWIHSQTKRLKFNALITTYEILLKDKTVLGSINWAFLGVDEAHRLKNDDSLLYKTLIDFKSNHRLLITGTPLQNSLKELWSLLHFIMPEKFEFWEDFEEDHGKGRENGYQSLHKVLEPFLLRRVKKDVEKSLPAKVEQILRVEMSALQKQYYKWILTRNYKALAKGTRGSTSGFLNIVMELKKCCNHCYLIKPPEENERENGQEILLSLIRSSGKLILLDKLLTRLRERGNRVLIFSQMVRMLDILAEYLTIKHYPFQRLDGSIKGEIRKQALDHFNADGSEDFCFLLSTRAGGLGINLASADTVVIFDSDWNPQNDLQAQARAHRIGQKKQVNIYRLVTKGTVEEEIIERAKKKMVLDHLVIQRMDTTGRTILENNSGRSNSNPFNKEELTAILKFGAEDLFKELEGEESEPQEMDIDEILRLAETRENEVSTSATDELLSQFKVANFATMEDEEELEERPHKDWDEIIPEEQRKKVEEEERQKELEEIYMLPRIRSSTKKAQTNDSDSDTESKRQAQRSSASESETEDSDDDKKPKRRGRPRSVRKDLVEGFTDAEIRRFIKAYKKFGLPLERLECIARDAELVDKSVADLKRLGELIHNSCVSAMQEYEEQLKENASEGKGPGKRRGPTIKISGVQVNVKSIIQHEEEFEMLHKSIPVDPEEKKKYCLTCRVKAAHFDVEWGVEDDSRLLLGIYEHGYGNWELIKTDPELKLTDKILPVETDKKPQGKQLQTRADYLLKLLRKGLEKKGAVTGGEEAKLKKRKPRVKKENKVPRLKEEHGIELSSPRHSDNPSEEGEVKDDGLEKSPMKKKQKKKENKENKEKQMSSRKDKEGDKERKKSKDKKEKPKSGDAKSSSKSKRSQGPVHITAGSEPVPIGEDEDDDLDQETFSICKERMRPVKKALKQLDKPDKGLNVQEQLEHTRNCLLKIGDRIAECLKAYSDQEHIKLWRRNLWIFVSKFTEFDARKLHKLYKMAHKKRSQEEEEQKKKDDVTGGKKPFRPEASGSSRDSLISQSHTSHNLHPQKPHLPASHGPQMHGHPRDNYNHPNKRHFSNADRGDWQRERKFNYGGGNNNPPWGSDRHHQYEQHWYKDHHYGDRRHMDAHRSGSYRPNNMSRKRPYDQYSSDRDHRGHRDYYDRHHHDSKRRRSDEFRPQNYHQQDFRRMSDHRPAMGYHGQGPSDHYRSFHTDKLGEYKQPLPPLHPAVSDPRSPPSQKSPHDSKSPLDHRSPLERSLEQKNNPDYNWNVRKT

Row | effect of a mutation on the interaction | Variant
7 | with no effect | MSRVPSPPPPAEMSSGPVAESWCYTQIKVVKFSYMWTINNFSFCREEMGEVIKSSTFSSGANDKLKWCLRVNPKGLDEESKDYLSLCLLLVSCPKSEVRAKFKFSILNAKGEETKAMESQRAYRFVQGKDWGFKKFIRRDFLLDEANGLLPDDKLTLFCEVSVVQDSVNISGQNTMNMVKVPECRLADELGGLWENSRFTDCCLCVAGQEFQAHKAILAARSPVFSAMFEHEMEESKKNRVEINDVEPEVFKEMMCFIYTGKAPNLDKMADDLLAAADKYALERLKVMCEDALCSNLSVENAAEILILADLHSADQLKTQAVDFINYHASDVLETSGWKSMVVSHPHLVAEAYRSLASAQCPFLGPPRKRLKQS [Y87C]

Variants of: B1
Conditions: with chk2_human CHEK2, O96017
Sequence of chk2_human CHEK2, O96017 (O96017 whole entry): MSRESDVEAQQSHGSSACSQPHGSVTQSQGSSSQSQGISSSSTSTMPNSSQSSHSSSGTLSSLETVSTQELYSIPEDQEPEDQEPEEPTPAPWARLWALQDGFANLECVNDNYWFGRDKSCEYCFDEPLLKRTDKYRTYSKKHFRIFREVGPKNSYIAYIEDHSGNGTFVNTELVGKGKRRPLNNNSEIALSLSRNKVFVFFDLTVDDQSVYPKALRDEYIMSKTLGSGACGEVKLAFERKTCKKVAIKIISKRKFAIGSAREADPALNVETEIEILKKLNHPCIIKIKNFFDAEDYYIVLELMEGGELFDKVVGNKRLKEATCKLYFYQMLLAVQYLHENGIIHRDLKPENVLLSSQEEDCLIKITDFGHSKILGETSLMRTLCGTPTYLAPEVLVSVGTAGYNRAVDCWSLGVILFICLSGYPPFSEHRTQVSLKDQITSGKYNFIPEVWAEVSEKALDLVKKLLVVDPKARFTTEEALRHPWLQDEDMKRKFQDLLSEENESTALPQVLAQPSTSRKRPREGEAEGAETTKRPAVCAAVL

Row | effect of a mutation on the interaction | Variant
8 | with no effect | MSRVPSPPPPAEMSSGPVAESWCYTQIKVVKFSYMWTINNFSFCREEMGEVIKSSTFSSGANDKLKWCLRVNPKGLDEESKDYLSLCLLLVSCPKSEVRAKFKFSILNAKGEETKAMESQRAYRFVQGKDWGFKKFIRRDFLLDEANGLLPDDKLTLFCEVSVVQDSVNISGQNTMNMVKVPECRLADELGGLWENSRFTDCCLCVAGQEFQAHKAILAARSPVFSAMFEHEMEESKKNRVEINDVEPEVFKEMMCFIYTGKAPNLDKMADDLLAAADKYALERLKVMCEDALCSNLSVENAAEILILADLHSADQLKTQAVDFINYHASDVLETSGWKSMVVSHPHLVAEAYRSLASAQCPFLGPPRKRLKQS [Y87C]

Variants of: B1
Conditions: with ch3l1_human CHI3L1, P36222
Sequence of ch3l1_human CHI3L1, P36222 (P36222 whole entry): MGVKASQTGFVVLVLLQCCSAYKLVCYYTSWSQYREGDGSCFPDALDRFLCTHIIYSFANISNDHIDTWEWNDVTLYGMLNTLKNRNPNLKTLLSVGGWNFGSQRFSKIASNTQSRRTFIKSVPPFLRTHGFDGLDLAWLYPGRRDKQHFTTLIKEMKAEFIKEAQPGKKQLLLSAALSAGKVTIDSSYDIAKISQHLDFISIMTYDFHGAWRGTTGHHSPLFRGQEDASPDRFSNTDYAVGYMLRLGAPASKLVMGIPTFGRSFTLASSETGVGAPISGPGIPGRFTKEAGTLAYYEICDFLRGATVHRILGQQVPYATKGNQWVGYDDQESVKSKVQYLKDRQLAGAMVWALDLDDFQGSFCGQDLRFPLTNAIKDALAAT

Row | effect of a mutation on the interaction | Variant
9 | with no effect | MSRVPSPPPPAEMSSGPVAESWCYTQIKVVKFSYMWTINNFSFCREEMGEVIKSSTFSSGANDKLKWCLRVNPKGLDEESKDYLSLCLLLVSCPKSEVRAKFKFSILNAKGEETKAMESQRAYRFVQGKDWGFKKFIRRDFLLDEANGLLPDDKLTLFCEVSVVQDSVNISGQNTMNMVKVPECRLADELGGLWENSRFTDCCLCVAGQEFQAHKAILAARSPVFSAMFEHEMEESKKNRVEINDVEPEVFKEMMCFIYTGKAPNLDKMADDLLAAADKYALERLKVMCEDALCSNLSVENAAEILILADLHSADQLKTQAVDFINYHASDVLETSGWKSMVVSHPHLVAEAYRSLASAQCPFLGPPRKRLKQS [Y87C]

Variants of: B1
Conditions: with csf1r_human CSF1R

Row | effect of a mutation on the interaction | Variant
10 | with no effect | MSRVPSPPPPAEMSSGPVAESWCYTQIKVVKFSYMWTINNFSFCREEMGEVIKSSTFSSGANDKLKWCLRVNPKGLDEESKDYLSLCLLLVSCPKSEVRAKFKFSILNAKGEETKAMESQRAYRFVQGKDWGFKKFIRRDFLLDEANGLLPDDKLTLFCEVSVVQDSVNISGQNTMNMVKVPECRLADELGGLWENSRFTDCCLCVAGQEFQAHKAILAARSPVFSAMFEHEMEESKKNRVEINDVEPEVFKEMMCFIYTGKAPNLDKMADDLLAAADKYALERLKVMCEDALCSNLSVENAAEILILADLHSADQLKTQAVDFINYHASDVLETSGWKSMVVSHPHLVAEAYRSLASAQCPFLGPPRKRLKQS [Y87C]

Variants of: B1
Conditions: with ctla4_human CTLA4, P16410

Row | effect of a mutation on the interaction | Variant
11 | with no effect | MSRVPSPPPPAEMSSGPVAESWCYTQIKVVKFSYMWTINNFSFCREEMGEVIKSSTFSSGANDKLKWCLRVNPKGLDEESKDYLSLCLLLVSCPKSEVRAKFKFSILNAKGEETKAMESQRAYRFVQGKDWGFKKFIRRDFLLDEANGLLPDDKLTLFCEVSVVQDSVNISGQNTMNMVKVPECRLADELGGLWENSRFTDCCLCVAGQEFQAHKAILAARSPVFSAMFEHEMEESKKNRVEINDVEPEVFKEMMCFIYTGKAPNLDKMADDLLAAADKYALERLKVMCEDALCSNLSVENAAEILILADLHSADQLKTQAVDFINYHASDVLETSGWKSMVVSHPHLVAEAYRSLASAQCPFLGPPRKRLKQS [Y87C]

Variants of: B1
Conditions: with cul3_human CUL3, Q13618
Sequence of cul3_human CUL3, Q13618 (Q13618 whole entry): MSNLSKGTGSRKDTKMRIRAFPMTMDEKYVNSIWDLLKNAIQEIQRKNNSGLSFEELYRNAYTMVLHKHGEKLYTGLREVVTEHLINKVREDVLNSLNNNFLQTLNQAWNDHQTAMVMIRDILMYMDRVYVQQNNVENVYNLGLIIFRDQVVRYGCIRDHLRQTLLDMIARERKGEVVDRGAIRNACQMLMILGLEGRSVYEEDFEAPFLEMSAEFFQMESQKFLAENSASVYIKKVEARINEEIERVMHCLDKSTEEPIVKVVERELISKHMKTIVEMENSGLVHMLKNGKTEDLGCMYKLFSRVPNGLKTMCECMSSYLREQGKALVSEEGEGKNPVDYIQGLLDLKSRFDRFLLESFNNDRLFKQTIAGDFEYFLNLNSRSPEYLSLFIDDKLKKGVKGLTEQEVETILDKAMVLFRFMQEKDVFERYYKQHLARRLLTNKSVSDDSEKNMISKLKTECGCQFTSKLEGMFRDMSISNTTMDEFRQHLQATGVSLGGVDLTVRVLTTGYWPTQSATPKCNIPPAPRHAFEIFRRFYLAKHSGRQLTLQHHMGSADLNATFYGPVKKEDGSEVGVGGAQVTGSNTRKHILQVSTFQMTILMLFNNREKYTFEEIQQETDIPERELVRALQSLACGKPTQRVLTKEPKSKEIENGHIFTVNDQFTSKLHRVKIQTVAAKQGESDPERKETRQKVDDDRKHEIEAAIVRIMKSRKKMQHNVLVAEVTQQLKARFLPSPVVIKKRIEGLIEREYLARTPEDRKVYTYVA

Row | effect of a mutation on the interaction | Variant
12 | with no effect | MSRVPSPPPPAEMSSGPVAESWCYTQIKVVKFSYMWTINNFSFCREEMGEVIKSSTFSSGANDKLKWCLRVNPKGLDEESKDYLSLCLLLVSCPKSEVRAKFKFSILNAKGEETKAMESQRAYRFVQGKDWGFKKFIRRDFLLDEANGLLPDDKLTLFCEVSVVQDSVNISGQNTMNMVKVPECRLADELGGLWENSRFTDCCLCVAGQEFQAHKAILAARSPVFSAMFEHEMEESKKNRVEINDVEPEVFKEMMCFIYTGKAPNLDKMADDLLAAADKYALERLKVMCEDALCSNLSVENAAEILILADLHSADQLKTQAVDFINYHASDVLETSGWKSMVVSHPHLVAEAYRSLASAQCPFLGPPRKRLKQS [Y87C]

Variants of: B1
Conditions: with cul4b_human CUL4B

Row | effect of a mutation on the interaction | Variant
13 | with no effect | MSRVPSPPPPAEMSSGPVAESWCYTQIKVVKFSYMWTINNFSFCREEMGEVIKSSTFSSGANDKLKWCLRVNPKGLDEESKDYLSLCLLLVSCPKSEVRAKFKFSILNAKGEETKAMESQRAYRFVQGKDWGFKKFIRRDFLLDEANGLLPDDKLTLFCEVSVVQDSVNISGQNTMNMVKVPECRLADELGGLWENSRFTDCCLCVAGQEFQAHKAILAARSPVFSAMFEHEMEESKKNRVEINDVEPEVFKEMMCFIYTGKAPNLDKMADDLLAAADKYALERLKVMCEDALCSNLSVENAAEILILADLHSADQLKTQAVDFINYHASDVLETSGWKSMVVSHPHLVAEAYRSLASAQCPFLGPPRKRLKQS [Y87C]

Variants of: B1
Conditions: with daxx_human DAXX

Row | effect of a mutation on the interaction | Variant
14 | with no effect | MSRVPSPPPPAEMSSGPVAESWCYTQIKVVKFSYMWTINNFSFCREEMGEVIKSSTFSSGANDKLKWCLRVNPKGLDEESKDYLSLCLLLVSCPKSEVRAKFKFSILNAKGEETKAMESQRAYRFVQGKDWGFKKFIRRDFLLDEANGLLPDDKLTLFCEVSVVQDSVNISGQNTMNMVKVPECRLADELGGLWENSRFTDCCLCVAGQEFQAHKAILAARSPVFSAMFEHEMEESKKNRVEINDVEPEVFKEMMCFIYTGKAPNLDKMADDLLAAADKYALERLKVMCEDALCSNLSVENAAEILILADLHSADQLKTQAVDFINYHASDVLETSGWKSMVVSHPHLVAEAYRSLASAQCPFLGPPRKRLKQS [Y87C]

Variants of: B1
Conditions: with ddx5_human DDX5, P17844
Sequence of ddx5_human DDX5, P17844 (P17844 whole entry): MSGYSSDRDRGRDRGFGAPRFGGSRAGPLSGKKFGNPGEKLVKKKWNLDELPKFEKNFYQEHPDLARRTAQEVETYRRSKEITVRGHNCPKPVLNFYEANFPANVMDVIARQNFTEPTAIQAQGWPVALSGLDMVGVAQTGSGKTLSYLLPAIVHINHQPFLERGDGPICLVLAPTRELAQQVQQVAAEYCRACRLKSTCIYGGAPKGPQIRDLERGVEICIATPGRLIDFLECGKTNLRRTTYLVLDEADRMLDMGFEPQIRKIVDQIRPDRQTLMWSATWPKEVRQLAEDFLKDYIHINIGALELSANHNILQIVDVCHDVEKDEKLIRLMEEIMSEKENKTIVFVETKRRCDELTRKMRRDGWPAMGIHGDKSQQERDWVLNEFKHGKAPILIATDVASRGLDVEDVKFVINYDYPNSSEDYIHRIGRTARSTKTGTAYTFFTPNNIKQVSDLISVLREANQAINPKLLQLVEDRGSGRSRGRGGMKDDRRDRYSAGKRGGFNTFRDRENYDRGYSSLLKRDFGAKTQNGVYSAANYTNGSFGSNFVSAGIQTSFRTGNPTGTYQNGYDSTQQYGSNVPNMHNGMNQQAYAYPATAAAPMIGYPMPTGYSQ

Row | effect of a mutation on the interaction | Variant
15 | with no effect | MSRVPSPPPPAEMSSGPVAESWCYTQIKVVKFSYMWTINNFSFCREEMGEVIKSSTFSSGANDKLKWCLRVNPKGLDEESKDYLSLCLLLVSCPKSEVRAKFKFSILNAKGEETKAMESQRAYRFVQGKDWGFKKFIRRDFLLDEANGLLPDDKLTLFCEVSVVQDSVNISGQNTMNMVKVPECRLADELGGLWENSRFTDCCLCVAGQEFQAHKAILAARSPVFSAMFEHEMEESKKNRVEINDVEPEVFKEMMCFIYTGKAPNLDKMADDLLAAADKYALERLKVMCEDALCSNLSVENAAEILILADLHSADQLKTQAVDFINYHASDVLETSGWKSMVVSHPHLVAEAYRSLASAQCPFLGPPRKRLKQS [Y87C]
